Test results published in patent US20220064254A1 (Janssen / Centocor, published 2022).
Changes are numbered by the printed parent chain.

B1: CAR17 (KL2B413_HL) (other)
chain: EVQLVESGGGLVQPGGSLRLSCAASGFTFSSYWMTWVRQAPGKGLEWVANIKQDGSERYYVDSVKGRFTISRDNAKNSLYLQMNSLRAEDTAVYYCARDQNYDILTGHYGMDVWGQGTTVTVSSGGSEGKSSGSGSESKSTGGSEIVLTQSPSFLSASVGDRVTITCRASQGISSYLSWYQQKPGKAPKLLIYATSTLQSGVPSRFSGSGSGTEFTLTISSLQPEDFATYYCQQLNSYPRTFGQGTKVEIKTSTPAPRPPTPAPTIASQPLSLRPEACRPAAGGAVHTRGLDFACDIYIWAPLAGTCGVLLLSLVITLYCKRGRKKLLYIFKQPFMRPVQTTQEEDGCSCRFPEEEEGGCELRVKFSRSADAPAYKQGQNQLYNELNLGRREEYDVLDKRRGRDPEMGGKPRRKNPQEGLYNELQKDKMAEAYSEIGMKGERRRGKGHDGLYQGLSTATKDTYDALHMQALPPR
notes: also called KL2B413 HL CAR; pBD000091628
B2: CAR19 (KL2B359_HL) (other)
chain: QVQLQESGPGLVKPSQTLSLTCTVSGNSITSDYAWNWIRQFPGKRLEWIGYISYSGSTTYNPSLKSRVTISRDTSKNQFSLKLSSVTAADTAVYYCATGYYYGSGFWGQGTLVTVSSGGSEGKSSGSGSESKSTGGSEIVLTQSPATLSLSPGERATLSCRASESVEYFGTSLMHWYQQKPGQPPRLLIYAASNVESGIPARFSGSGSGTDFTLTISSVEPEDFAVYFCQQTRKVPYTFGGGTKVEIKTSTPAPRPPTPAPTIASQPLSLRPEACRPAAGGAVHTRGLDFACDIYIWAPLAGTCGVLLLSLVITLYCKRGRKKLLYIFKQPFMRPVQTTQEEDGCSCRFPEEEEGGCELRVKFSRSADAPAYKQGQNQLYNELNLGRREEYDVLDKRRGRDPEMGGKPRRKNPQEGLYNELQKDKMAEAYSEIGMKGERRRGKGHDGLYQGLSTATKDTYDALHMQALPPR
notes: also called KL2B359 HL CAR; rehumanized 11B6 HL CAR
B3: CAR4 (HL_HCG5_LCB7_20AA) (other)
chain: QVQLQESGPGLVKPSDTLSLTCAVSGNSITSDYAWNWIRQFPGKGLEWMGYISYSGSTTYNPSLKSRVTISRDTSKNQFSLKLSSVTPVDTAVYYCATGYYYGSGFWGQGTLVTVSSGGSEGKSSGSGSESKSTGGSDIVLTQSPDSLAVSLGERATINCKASESVEYFGTSLMHWYQQKPGQPPKLLIYAASNRESGVPDRFSGSGSGTDFTLTISSVQAEDVAVYYCQQTRKVPYTFGQGTKLEIKTSTPAPRPPTPAPTIASQPLSLRPEACRPAAGGAVHTRGLDFACDIYIWAPLAGTCGVLLLSLVITLYCKRGRKKLLYIFKQPFMRPVQTTQEEDGCSCRFPEEEEGGCELRVKFSRSADAPAYKQGQNQLYNELNLGRREEYDVLDKRRGRDPEMGGKPRRKNPQEGLYNELQKDKMAEAYSEIGMKGERRRGKGHDGLYQGLSTATKDTYDALHMQALPPR
notes: also called construct 4; pDR000083437
B4: CAR1 (HL_HCG5_LCD6_20AA) (other)
chain: B3 chain with S217Q, A225S, Y228F
notes: also called construct 1; pDR000083431
B5: CAR2 (HL_HCG5_LCHumanized_20AA) (other)
chain: B3 chain with V219L
notes: also called construct 2
B6: CAR3 (HL_HCF3_LCB7_20AA) (other)
chain: B3 chain with M49I
notes: also called construct 3; pDR000083436
B7: CAR9 (LH_LCB7_HCG5_20AA) (other)
chain: DIVLTQSPDSLAVSLGERATINCKASESVEYFGTSLMHWYQQKPGQPPKLLIYAASNRESGVPDRFSGSGSGTDFTLTISSVQAEDVAVYYCQQTRKVPYTFGQGTKLEIKGGSEGKSSGSGSESKSTGGSQVQLQESGPGLVKPSDTLSLTCAVSGNSITSDYAWNWIRQFPGKGLEWMGYISYSGSTTYNPSLKSRVTISRDTSKNQFSLKLSSVTPVDTAVYYCATGYYYGSGFWGQGTLVTVSSTSTPAPRPPTPAPTIASQPLSLRPEACRPAAGGAVHTRGLDFACDIYIWAPLAGTCGVLLLSLVITLYCKRGRKKLLYIFKQPFMRPVQTTQEEDGCSCRFPEEEEGGCELRVKFSRSADAPAYKQGQNQLYNELNLGRREEYDVLDKRRGRDPEMGGKPRRKNPQEGLYNELQKDKMAEAYSEIGMKGERRRGKGHDGLYQGLSTATKDTYDALHMQALPPR
notes: also called construct 9; pDR000083444
B8: CAR5 (LH_LCD6_HCG5_20AA) (other)
chain: B7 chain with S80Q, A88S, Y91F
notes: also called construct 5; pDR000083438
B9: CAR6 (LH_LCHumanized_HCF3_20AA) (other)
chain: B7 chain with V82L, M180I
notes: also called construct 6; pDR000083440
B10: CAR7 (LH_LCHumanized_HCG5_20AA) (other)
chain: B7 chain with V82L
notes: also called construct 7; pDR000083441
B11: CAR8 (LH_LCB7_HCF3_20AA) (other)
chain: B7 chain with M180I
notes: also called construct 8; pDR000083443
B12: CAR10 (LH_LCD6_HCF3_20AA) (other)
chain: B7 chain with S80Q, A88S, Y91F, M180I
notes: also called construct 10; pDR000083446
B13: KL2B413 (scFv) (scFv, V domains shown)
VH: EVQLVESGGGLVQPGGSLRLSCAASGFTFSSYWMTWVRQAPGKGLEWVANIKQDGSERYYVDSVKGRFTISRDNAKNSLYLQMNSLRAEDTAVYYCARDQNYDILTGHYGMDVWGQGTTVTVSS
VL: EIVLTQSPSFLSASVGDRVTITCRASQGISSYLSWYQQKPGKAPKLLIYATSTLQSGVPSRFSGSGSGTEFTLTISSLQPEDFATYYCQQLNSYPRTFGQGTKVEIK
B14: KL2B359 (scFv) (scFv, V domains shown)
VH: QVQLQESGPGLVKPSQTLSLTCTVSGNSITSDYAWNWIRQFPGKRLEWIGYISYSGSTTYNPSLKSRVTISRDTSKNQFSLKLSSVTAADTAVYYCATGYYYGSGFWGQGTLVTVSS
VL: EIVLTQSPATLSLSPGERATLSCRASESVEYFGTSLMHWYQQKPGQPPRLLIYAASNVESGIPARFSGSGSGTDFTLTISSVEPEDFAVYFCQQTRKVPYTFGGGTKVEIK
notes: also called Clone KL2B359; rehumanized 11B6
B15: KL2B30 (antibody, V domains shown)
VH: QVQLQESGPGLVKPSETLSLTCTVSGGSISSYYWSWIRQPPGKGLEWIGYIYYSGSTNYNPSLKSRVTISVDTSKNQFSLKLSSVTAADTAVYYCAGTTIFGVVTPNFYYGMDVWGQGTTVTVSS
VL: DIQMTQSPSFLSASVGDRVTITCRASQGISSYLAWYQQKPGKAPKFLIYAASTLQSGVPSRFSGSGSGTEFTLTISSLQPEDFATYYCQQLNSYPLTFGGGTKVEIKR
notes: also called KL2B30 (Fab); KL2B30 Fab
B16: KL2B242 (antibody, human IgG4 S228P, lambda, F234A L235A, V domains shown)
VH: QVQLQESGPGLVKPSETLSLTCTVSGGSISSYYWSWLRQPAGSGLEWIGRLYVSGFTNYNPSLKSRVTLSLDPSRNQLSLKLSSVTAADTAVYYCAGDSGNYWGWFDPWGQGTLVTVSS
VL: SYELTQPPSVSVSPGETASITCSGDQLGENYACWYQQKPGQSPVLVIYQDSKRPSGIPERFSGSNSGNTATLTISGTQALDEADYYCQAWDNSIVVFGGGTKLTVLG
notes: also called KL2B242 (Fab); KL2B242 Fab
B17: KL2B53 (antibody, V domains shown)
VH: EVQLVESGGGVVQPGRSLRLSCVASGFTFSSYDIHWVRQAPGKGLEWVAIISYDGSKKDYTDSVKGRFTISRDNSKNTLYLQMDSLRVEDSAVYSCARESGWSHYYYYGMDVWGQGTMVTVSS
VL: DIVMTQSPSSLSASVGDRVTITCRASQDISNYLAWYQQKPGKVPKFLIYAASTLHSGVPSRFSGSGSGTDFTLTISSLQPEDVATYYCQKYNSAPYTFGQGTRLEIKR
notes: also called KL2B53 (Fab); KL2B53 Fab
B18: KL2B467 (antibody, V domains shown)
VH: QVQLVESGGGVVQPGRSLRLSCAASGFTFSYYGMHWVRQAPGKGLEWVAFISYDGSNKYYADSVKGRFTISRDNSKNTLYLQMNSLRAEDTAVYYCAHLPYSGSYWAFDYWGQGTQVTVSS
VL: QSVLTQPPSVSVAPGQTASITCGGDNIGSKSVHWYQQKPGQAPVLVVYDNSDRPSGIPERFSGSNSGTTATLTISRVEAGDEADYYCQVWDSSSDHPVVFGGGTKVTVLG
notes: also called KL2B467 (Fab); KL2B467 Fab
B19: KL2B494 (antibody, V domains shown)
VH: QVQLVESGGGLVQPGGSLRLSCAASGFTFSHYAMSWVRQAPGKGLEWVSTIGGSGGSTYYADSVKGRFTISRDNSKNTLYLQMNSLRAEDTAVYYCAKPHIVMVTALLYDGMDVWGQGTMVTVSS
VL: SSELTQPPSVSVAPGQTARITCGGNNIGSKSVHWYQQKPGQAPVLVVYDDSDRPSGIPERFSGSNSGNTATLTISRVEAGDEADYYCQVWDSSSDHVVFGGGTKLTVLG
notes: also called KL2B494 (Fab); KL2B494 Fab

Tests used:
[1] = target: T1, biotinylated recombinant hK2 protein (human, UniProt P20151 25-261, biotin label (EZ-Link Sulfo-NHS-LC-Biotin)); assay: flow cytometry; primary human T cells lentivirally transduced with the CAR (MOI 3), day 14, stained with biotinylated hK2 (1 ug/ml) then streptavidin-PE; UTD control gate 0.065
T1 construct: In-house biotin-labelled recombinant hK2 used as the flow cytometry reagent; also called biotinylated hK2; Biotin-Hk2 protein
T1 sequence (P20151 25-261): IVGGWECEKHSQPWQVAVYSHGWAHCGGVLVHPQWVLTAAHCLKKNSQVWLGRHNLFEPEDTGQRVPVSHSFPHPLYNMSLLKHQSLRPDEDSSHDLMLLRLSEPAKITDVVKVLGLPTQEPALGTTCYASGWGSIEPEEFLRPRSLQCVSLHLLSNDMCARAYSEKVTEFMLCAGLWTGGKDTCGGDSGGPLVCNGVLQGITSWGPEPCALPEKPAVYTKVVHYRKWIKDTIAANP

[2] = target: T1, biotinylated recombinant hK2 protein; assay: flow cytometry; CAR-transduced JNL cells stained with biotinylated hK2 and streptavidin-PE
[3] = target: hK2 on target cells (VCaP, LNCaP/hK2, LNCaP, C4-2B) (human, UniProt P20151 19-261); assay: cell-based or functional assay
Chain of hK2 on target cells (VCaP, LNCaP/hK2, LNCaP, C4-2B) (P20151 19-261): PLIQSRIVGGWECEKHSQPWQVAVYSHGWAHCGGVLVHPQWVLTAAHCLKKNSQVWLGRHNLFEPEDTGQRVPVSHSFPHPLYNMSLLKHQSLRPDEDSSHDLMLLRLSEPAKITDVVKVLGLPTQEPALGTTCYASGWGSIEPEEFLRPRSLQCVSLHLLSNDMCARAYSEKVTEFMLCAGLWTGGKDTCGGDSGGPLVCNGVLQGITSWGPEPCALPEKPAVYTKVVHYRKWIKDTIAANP

[4] = target: T1, biotinylated recombinant hK2 protein; assay: flow cytometry; JNL (Jurkat NFAT-luciferase) cells transduced with the CAR, stained with biotinylated hK2 then streptavidin-PE; UTD control gate 0.021
[5] = target: T1, biotinylated recombinant hK2 protein; assay: flow cytometry; primary human T cells lentivirally transduced with the CAR (MOI 3), day 14, stained with biotinylated hK2 (1 µg/ml) then streptavidin-PE; UTD control gate 0.086
[6] = target: T2, soluble human Kallikrein-2 (hK2) (human, UniProt P20151 25-261); assay: SPR; antibody captured on anti-Fc sensor chip, soluble hK2 injected; 1:1 Langmuir fit, KD = koff/kon
T2 construct: The construct used in SPR, ELISA and MSD screening is not defined; the stated signal peptide (1-18) is left out, and the pro-peptide (19-24) may or may not have been present; also called KLK2; soluble hK2
T2 sequence (P20151 25-261): as the sequence (P20151 25-261) above

Row | Binder | percent of cells in the PE-positive gate (hK2 CAR) [4] [%] | percent of CD3+ T cells in the PE-positive gate (hK2 CAR) [5] [%] | Kd [6] [nM] | also measured
1 | B1 |  |  |  | percent of CD3+ T cells in the PE-positive gate (hK2 CAR) [1]: 56%; % of JNL cells stained with biotinylated hK2 (reported as CAR expression) [2]: 73.7%; tumor cell growth inhibition (TGI, %) of hK2 positive VCaP cells, real-time IncuCyte killing assay, 96 hours [3]: ~100%
2 | B2 |  |  |  | percent of CD3+ T cells in the PE-positive gate (hK2 CAR) [1]: 45.1%; % of JNL cells stained with biotinylated hK2 (reported as CAR expression) [2]: 46%; tumor cell growth inhibition (TGI, %) of hK2 positive VCaP cells, real-time IncuCyte killing assay, 96 hours [3]: ~100%
3 | B3 | 64.3 | 42.7 |  | 
4 | B4 | 61.9 | 20 |  | 
5 | B5 | 65.4 | 23.6 |  | 
6 | B6 | 64.3 | 29.4 |  | 
7 | B7 | 68 | 30.6 |  | 
8 | B8 | 66.4 | 17.9 |  | 
9 | B9 | 70.3 | 27.8 |  | 
10 | B10 | 71.9 | 35 |  | 
11 | B11 | 66.3 | 21.5 |  | 
12 | B12 | 60 | 20.1 |  | 
13 | B13 |  |  | 34.3 | 
14 | B14 |  |  | 0.7 to 1 | 
15 | B15 |  |  | 0.46 | 
16 | B16 |  |  | 0.04 | 
17 | B17 |  |  | 0.08 | 
18 | B18 |  |  | 0.078 | 
19 | B19 |  |  | 0.053 | 
